Biological target: human prostate-specific membrane antigen (PSMA) (human, UniProt Q04609 1-750)
Assay: cell-based or functional assay

human prostate-specific membrane antigen (PSMA), sequence (Q04609 whole entry): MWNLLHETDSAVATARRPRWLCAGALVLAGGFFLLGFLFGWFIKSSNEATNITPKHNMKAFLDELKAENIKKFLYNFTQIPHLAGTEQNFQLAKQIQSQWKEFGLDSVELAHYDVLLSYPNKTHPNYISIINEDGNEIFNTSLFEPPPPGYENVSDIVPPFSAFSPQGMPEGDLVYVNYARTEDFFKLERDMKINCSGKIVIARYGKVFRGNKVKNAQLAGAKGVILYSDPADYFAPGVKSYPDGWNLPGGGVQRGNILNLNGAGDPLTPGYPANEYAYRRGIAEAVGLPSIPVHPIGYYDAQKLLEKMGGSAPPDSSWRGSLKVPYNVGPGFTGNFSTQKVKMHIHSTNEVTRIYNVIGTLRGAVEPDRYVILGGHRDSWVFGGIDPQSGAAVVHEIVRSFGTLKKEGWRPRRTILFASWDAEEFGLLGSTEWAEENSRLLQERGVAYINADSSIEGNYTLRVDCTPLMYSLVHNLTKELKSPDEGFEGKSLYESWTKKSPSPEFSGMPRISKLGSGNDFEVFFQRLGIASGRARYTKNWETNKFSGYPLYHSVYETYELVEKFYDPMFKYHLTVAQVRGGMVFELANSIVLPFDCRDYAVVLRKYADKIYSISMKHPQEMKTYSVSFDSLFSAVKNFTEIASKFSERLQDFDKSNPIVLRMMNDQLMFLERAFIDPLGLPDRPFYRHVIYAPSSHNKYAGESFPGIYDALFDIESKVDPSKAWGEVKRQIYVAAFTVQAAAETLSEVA

Binder	cytokine levels of 19-28z/iCAR T cells on CD19+PSMA+ off-target versus CD19+ target AAPCs, inhibition [%]
2B4 iCAR-P (PSMA-specific inhibitory chimeric antigen receptor with 2B4 intracellular domain) (receptor) EVQLQQSGPELVKPGTSVRISCKTSGYTFTEYTIHWVKQSHGKSLEWIGNINPNNGGTTYNQKFEDKATLTVDKSSSTAYMELRSLTSEDSAVYYCAAGWNFDYWGQGTTVTVSSGGGGSGGGGSGGGGSDIVMTQSHKFMSTSVGDRVSIICKASQDVGTAVDWYQQKPGQSPKLLIYWASTRHTGVPDRFTGSGSGTDFTLTITNVQSEDLADYFCQQYNSYPLTFGAGTMLDLKRAAAQDCQNAHQEFRFWPFLVIIVILSALFLGTLACFCVWRRKRKEKQSETSPKEFLTIYEDVKDLKTRRNHEQEQTFPGGGSTIYSMIQSQSSAPTSQEPAYTLYSLIQPSRKSGSRKRNHSPSFNSTIYEVIGKSQPKAQNPARLSRKELENFDVYS	30
LAG-3 iCAR-P (PSMA-specific inhibitory chimeric antigen receptor with LAG-3 intracellular domain) (receptor) EVQLQQSGPELVKPGTSVRISCKTSGYTFTEYTIHWVKQSHGKSLEWIGNINPNNGGTTYNQKFEDKATLTVDKSSSTAYMELRSLTSEDSAVYYCAAGWNFDYWGQGTTVTVSSGGGGSGGGGSGGGGSDIVMTQSHKFMSTSVGDRVSIICKASQDVGTAVDWYQQKPGQSPKLLIYWASTRHTGVPDRFTGSGSGTDFTLTITNVQSEDLADYFCQQYNSYPLTFGAGTMLDLKRAAALGAAVYFTELSSPGAQRSGRAPGALPAGHLLLFLILGVLSLLLLVTGAFGFHLWRRQWRPRRFSALEQGIHPPQAQSKIEELEQEPEPEPEPEPEPEPEPEPEQL	30
BTLA iCAR-P (PSMA-specific inhibitory chimeric antigen receptor with BTLA intracellular domain) (receptor) EVQLQQSGPELVKPGTSVRISCKTSGYTFTEYTIHWVKQSHGKSLEWIGNINPNNGGTTYNQKFEDKATLTVDKSSSTAYMELRSLTSEDSAVYYCAAGWNFDYWGQGTTVTVSSGGGGSGGGGSGGGGSDIVMTQSHKFMSTSVGDRVSIICKASQDVGTAVDWYQQKPGQSPKLLIYWASTRHTGVPDRFTGSGSGTDFTLTITNVQSEDLADYFCQQYNSYPLTFGAGTMLDLKRAAADVKSASERPSKDEMASRPWLLYSLLPLGGLPLLITTCFCLFCCLRRHQGKQNELSDTAGREINLVDAHLKSEQTEASTRQNSQVLLSETGIYDNDPDLCFRMQEGSEVYSNPCLEENKPGIVYASLNHSVIGPNSRLARNVKEAPTEYASICVRS	30

From patent US20150376296A1 (Memorial Sloan Kettering, published 2015)
